Test results from paper PMC9482650, “Quantitative fragmentomics allow affinity mapping of interactomes” (Nature Communications, 2022).

T1: ARHGEF11, O15085
T1 sequence (O15085 42-136, limits assumed, looked up): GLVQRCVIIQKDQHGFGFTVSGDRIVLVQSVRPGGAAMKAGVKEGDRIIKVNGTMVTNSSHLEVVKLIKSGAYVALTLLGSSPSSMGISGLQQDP

T2: DFNB31_1, Q9P202
T2 sequence (Q9P202 135-233, limits assumed, looked up): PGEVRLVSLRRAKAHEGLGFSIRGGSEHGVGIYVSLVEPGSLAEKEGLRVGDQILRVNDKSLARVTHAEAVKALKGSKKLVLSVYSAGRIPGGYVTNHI

T3: DFNB31_2, Q9P202
T3 sequence (Q9P202 274-371, limits assumed, looked up): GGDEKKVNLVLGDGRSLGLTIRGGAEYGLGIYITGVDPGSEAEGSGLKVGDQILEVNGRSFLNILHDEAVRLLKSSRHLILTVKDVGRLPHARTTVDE

T4: GRIP1_3, Q9Y3R0
T4 sequence (Q9Y3R0 247-346, limits assumed, looked up): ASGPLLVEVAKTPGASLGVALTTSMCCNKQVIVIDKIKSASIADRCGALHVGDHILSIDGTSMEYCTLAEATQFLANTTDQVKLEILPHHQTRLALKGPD

T5: LIN7C, Q9NUP9
T5 sequence (Q9NUP9 88-185, limits assumed, looked up): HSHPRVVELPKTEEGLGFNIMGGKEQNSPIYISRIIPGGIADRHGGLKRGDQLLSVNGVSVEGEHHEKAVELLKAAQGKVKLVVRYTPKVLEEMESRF

T6: LNX2_3, Q8N448
T6 sequence (Q8N448 463-564, limits assumed, looked up): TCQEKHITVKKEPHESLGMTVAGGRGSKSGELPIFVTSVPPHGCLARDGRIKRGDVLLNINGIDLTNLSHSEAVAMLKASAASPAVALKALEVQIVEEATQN

T7: MPP2, Q14168
T7 sequence (Q14168 180-250, limits assumed, looked up): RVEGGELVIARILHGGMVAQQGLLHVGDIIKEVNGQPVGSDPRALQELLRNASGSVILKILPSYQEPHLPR

T8: PARD3B_1, Q8TEW8
T8 sequence (Q8TEW8 196-299, limits assumed, looked up): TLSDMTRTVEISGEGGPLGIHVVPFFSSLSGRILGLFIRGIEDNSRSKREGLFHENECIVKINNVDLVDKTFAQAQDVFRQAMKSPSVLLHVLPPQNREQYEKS

T9: RADIL, Q96JH8
T9 sequence (Q96JH8 971-1071, limits assumed, looked up): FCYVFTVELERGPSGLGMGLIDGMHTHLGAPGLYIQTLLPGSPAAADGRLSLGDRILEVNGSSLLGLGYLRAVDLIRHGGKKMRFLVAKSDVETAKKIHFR

T10: SIPA1L2, Q9P2F8
T10 sequence (Q9P2F8 945-1036, limits assumed, looked up): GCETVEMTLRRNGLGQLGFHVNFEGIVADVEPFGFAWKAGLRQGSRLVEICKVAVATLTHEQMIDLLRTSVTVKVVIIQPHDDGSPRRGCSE

T11: SNTG2, Q9NY99
T11 sequence (Q9NY99 68-166, limits assumed, looked up): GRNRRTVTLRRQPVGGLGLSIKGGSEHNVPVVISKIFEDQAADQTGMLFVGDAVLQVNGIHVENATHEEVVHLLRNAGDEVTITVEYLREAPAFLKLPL

T12: TJP3_3, O95049
T12 sequence (O95049 375-456, limits assumed, looked up): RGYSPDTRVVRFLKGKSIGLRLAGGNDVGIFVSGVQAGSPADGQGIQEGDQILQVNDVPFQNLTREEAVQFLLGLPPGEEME


target: T1, ARHGEF11, O15085; assay: holdup assay; set-up: key: below the threshold = too weak to quantify, mostly under pKd 3.1 to 4; settings: plain residues with an end cap or a label only (N-terminal biotin on a linker: ado-ado)

| Binder | pKd |
| --- | --- |
| DPAESMESLV [PTPRG, P23470] | 3.61 |
| PSHPRLQTHV [KIRREL2, Q6UWL6] | 4.06 |

target: CASK, O14936; assay: holdup assay; set-up: key: below the threshold = too weak to quantify, mostly under pKd 3.1 to 4; settings: plain residues with an end cap or a label only (N-terminal biotin on a linker: ado-ado)
Sequence (O14936 487-570): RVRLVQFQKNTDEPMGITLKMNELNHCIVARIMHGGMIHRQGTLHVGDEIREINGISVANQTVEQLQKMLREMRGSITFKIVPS

| Binder | pKd |
| --- | --- |
| DPAESMESLV [PTPRG, P23470] | below the threshold |
| PSHPRLQTHV [KIRREL2, Q6UWL6] | below the threshold |

target: T2, DFNB31_1, Q9P202; assay: holdup assay; set-up: key: below the threshold = too weak to quantify, mostly under pKd 3.1 to 4; settings: plain residues with an end cap or a label only (N-terminal biotin on a linker: ado-ado)

| Binder | pKd |
| --- | --- |
| DPAESMESLV [PTPRG, P23470] | below the threshold |
| PSHPRLQTHV [KIRREL2, Q6UWL6] | below the threshold |

target: T3, DFNB31_2, Q9P202; assay: holdup assay; set-up: key: below the threshold = too weak to quantify, mostly under pKd 3.1 to 4; settings: plain residues with an end cap or a label only (N-terminal biotin on a linker: ado-ado)

| Binder | pKd |
| --- | --- |
| DPAESMESLV [PTPRG, P23470] | below the threshold |
| PSHPRLQTHV [KIRREL2, Q6UWL6] | below the threshold |

target: DLG1_2, Q12959; assay: holdup assay; set-up: key: below the threshold = too weak to quantify, mostly under pKd 3.1 to 4; settings: plain residues with an end cap or a label only (N-terminal biotin on a linker: ado-ado)
Sequence (Q12959 314-412): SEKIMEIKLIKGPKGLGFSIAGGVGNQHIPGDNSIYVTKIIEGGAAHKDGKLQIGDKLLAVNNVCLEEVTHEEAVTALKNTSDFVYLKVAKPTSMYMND

| Binder | pKd |
| --- | --- |
| DPAESMESLV [PTPRG, P23470] | 5.03 |
| PSHPRLQTHV [KIRREL2, Q6UWL6] | 4.65 |

target: DLG5_1, Q8TDM6; assay: holdup assay; set-up: key: below the threshold = too weak to quantify, mostly under pKd 3.1 to 4; settings: plain residues with an end cap or a label only (N-terminal biotin on a linker: ado-ado)
Sequence (Q8TDM6 617-713): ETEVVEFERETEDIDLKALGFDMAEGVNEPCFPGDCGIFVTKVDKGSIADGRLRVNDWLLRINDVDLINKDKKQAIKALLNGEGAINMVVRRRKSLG

| Binder | pKd |
| --- | --- |
| DPAESMESLV [PTPRG, P23470] | below the threshold |
| PSHPRLQTHV [KIRREL2, Q6UWL6] | below the threshold |

target: FRMPD2_1, Q68DX3; assay: holdup assay; set-up: key: below the threshold = too weak to quantify, mostly under pKd 3.1 to 4; settings: plain residues with an end cap or a label only (N-terminal biotin on a linker: ado-ado)
Sequence (Q68DX3 770-861): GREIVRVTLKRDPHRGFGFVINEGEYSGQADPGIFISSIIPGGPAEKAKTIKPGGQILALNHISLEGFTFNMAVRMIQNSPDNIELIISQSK

| Binder | pKd |
| --- | --- |
| DPAESMESLV [PTPRG, P23470] | below the threshold |
| PSHPRLQTHV [KIRREL2, Q6UWL6] | below the threshold |

target: FRMPD3, Q5JV73; assay: holdup assay; set-up: key: below the threshold = too weak to quantify, mostly under pKd 3.1 to 4; settings: plain residues with an end cap or a label only (N-terminal biotin on a linker: ado-ado)
Sequence (Q5JV73 12-100): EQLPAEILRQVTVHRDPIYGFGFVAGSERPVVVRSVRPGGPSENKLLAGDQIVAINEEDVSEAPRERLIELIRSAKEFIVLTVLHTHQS

| Binder | pKd |
| --- | --- |
| DPAESMESLV [PTPRG, P23470] | below the threshold |
| PSHPRLQTHV [KIRREL2, Q6UWL6] | below the threshold |

target: GIPC2, Q8TF65; assay: holdup assay; set-up: key: below the threshold = too weak to quantify, mostly under pKd 3.1 to 4; settings: plain residues with an end cap or a label only (N-terminal biotin on a linker: ado-ado)
Sequence (Q8TF65 112-203): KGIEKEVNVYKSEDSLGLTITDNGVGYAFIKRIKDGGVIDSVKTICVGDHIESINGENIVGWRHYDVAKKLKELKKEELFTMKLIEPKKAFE

| Binder | pKd |
| --- | --- |
| DPAESMESLV [PTPRG, P23470] | 3.95 |
| PSHPRLQTHV [KIRREL2, Q6UWL6] | below the threshold |

target: T4, GRIP1_3, Q9Y3R0; assay: holdup assay; set-up: key: below the threshold = too weak to quantify, mostly under pKd 3.1 to 4; settings: plain residues with an end cap or a label only (N-terminal biotin on a linker: ado-ado)

| Binder | pKd |
| --- | --- |
| DPAESMESLV [PTPRG, P23470] | below the threshold |
| PSHPRLQTHV [KIRREL2, Q6UWL6] | below the threshold |

target: GRIP2_7, Q9C0E4; assay: holdup assay; set-up: key: below the threshold = too weak to quantify, mostly under pKd 3.1 to 4; settings: plain residues with an end cap or a label only (N-terminal biotin on a linker: ado-ado)
Sequence (Q9C0E4 934-1023): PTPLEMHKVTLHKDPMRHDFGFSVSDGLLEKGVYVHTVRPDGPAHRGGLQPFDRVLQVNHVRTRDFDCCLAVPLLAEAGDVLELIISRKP

| Binder | pKd |
| --- | --- |
| DPAESMESLV [PTPRG, P23470] | below the threshold |
| PSHPRLQTHV [KIRREL2, Q6UWL6] | below the threshold |

target: Inadl_5, Q8NI35; assay: holdup assay; set-up: key: below the threshold = too weak to quantify, mostly under pKd 3.1 to 4; settings: plain residues with an end cap or a label only (N-terminal biotin on a linker: ado-ado)
Sequence (Q8NI35 673-780): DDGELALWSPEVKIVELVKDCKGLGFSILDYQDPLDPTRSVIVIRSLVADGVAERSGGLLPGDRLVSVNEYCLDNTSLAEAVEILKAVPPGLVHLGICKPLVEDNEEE

| Binder | pKd |
| --- | --- |
| DPAESMESLV [PTPRG, P23470] | below the threshold |
| PSHPRLQTHV [KIRREL2, Q6UWL6] | below the threshold |

target: T5, LIN7C, Q9NUP9; assay: holdup assay; set-up: key: below the threshold = too weak to quantify, mostly under pKd 3.1 to 4; settings: plain residues with an end cap or a label only (N-terminal biotin on a linker: ado-ado)

| Binder | pKd |
| --- | --- |
| DPAESMESLV [PTPRG, P23470] | 3.94 |
| PSHPRLQTHV [KIRREL2, Q6UWL6] | 4 |

target: T6, LNX2_3, Q8N448; assay: holdup assay; set-up: key: below the threshold = too weak to quantify, mostly under pKd 3.1 to 4; settings: plain residues with an end cap or a label only (N-terminal biotin on a linker: ado-ado)

| Binder | pKd |
| --- | --- |
| DPAESMESLV [PTPRG, P23470] | below the threshold |
| PSHPRLQTHV [KIRREL2, Q6UWL6] | below the threshold |

target: MAGI1_2, Q96QZ7; assay: holdup assay; set-up: key: below the threshold = too weak to quantify, mostly under pKd 3.1 to 4; settings: plain residues with an end cap or a label only (N-terminal biotin on a linker: ado-ado)
Sequence (Q96QZ7 456-580): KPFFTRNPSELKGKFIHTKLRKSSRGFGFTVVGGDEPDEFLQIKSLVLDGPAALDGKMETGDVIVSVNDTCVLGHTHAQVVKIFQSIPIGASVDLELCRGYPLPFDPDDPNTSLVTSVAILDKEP

| Binder | pKd |
| --- | --- |
| DPAESMESLV [PTPRG, P23470] | 3.55 |
| PSHPRLQTHV [KIRREL2, Q6UWL6] | 4.85 |

target: MAGI2_2, Q86UL8; assay: holdup assay; set-up: key: below the threshold = too weak to quantify, mostly under pKd 3.1 to 4; settings: plain residues with an end cap or a label only (N-terminal biotin on a linker: ado-ado)
Sequence (Q86UL8 410-522): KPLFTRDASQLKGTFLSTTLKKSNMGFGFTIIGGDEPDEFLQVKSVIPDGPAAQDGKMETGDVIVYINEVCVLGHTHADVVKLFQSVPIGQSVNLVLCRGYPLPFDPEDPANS

| Binder | pKd |
| --- | --- |
| DPAESMESLV [PTPRG, P23470] | 4.24 |
| PSHPRLQTHV [KIRREL2, Q6UWL6] | 4.82 |

target: MAGI2_4, Q86UL8; assay: holdup assay; set-up: key: below the threshold = too weak to quantify, mostly under pKd 3.1 to 4; settings: plain residues with an end cap or a label only (N-terminal biotin on a linker: ado-ado)
Sequence (Q86UL8 772-865): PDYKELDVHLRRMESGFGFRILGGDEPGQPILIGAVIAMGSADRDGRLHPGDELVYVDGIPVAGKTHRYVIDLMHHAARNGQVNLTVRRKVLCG

| Binder | pKd |
| --- | --- |
| DPAESMESLV [PTPRG, P23470] | 4.25 |
| PSHPRLQTHV [KIRREL2, Q6UWL6] | 3.62 |

target: MAST1, Q9Y2H9; assay: holdup assay; set-up: key: below the threshold = too weak to quantify, mostly under pKd 3.1 to 4; settings: plain residues with an end cap or a label only (N-terminal biotin on a linker: ado-ado)
Sequence (Q9Y2H9 962-1065): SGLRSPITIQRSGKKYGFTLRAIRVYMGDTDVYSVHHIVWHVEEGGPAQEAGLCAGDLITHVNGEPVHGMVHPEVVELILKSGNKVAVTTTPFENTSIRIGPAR

| Binder | pKd |
| --- | --- |
| DPAESMESLV [PTPRG, P23470] | 4.31 |
| PSHPRLQTHV [KIRREL2, Q6UWL6] | 4.5 |

target: T7, MPP2, Q14168; assay: holdup assay; set-up: key: below the threshold = too weak to quantify, mostly under pKd 3.1 to 4; settings: plain residues with an end cap or a label only (N-terminal biotin on a linker: ado-ado)

| Binder | pKd |
| --- | --- |
| DPAESMESLV [PTPRG, P23470] | below the threshold |
| PSHPRLQTHV [KIRREL2, Q6UWL6] | below the threshold |

target: T8, PARD3B_1, Q8TEW8; assay: holdup assay; set-up: key: below the threshold = too weak to quantify, mostly under pKd 3.1 to 4; settings: plain residues with an end cap or a label only (N-terminal biotin on a linker: ado-ado)

| Binder | pKd |
| --- | --- |
| DPAESMESLV [PTPRG, P23470] | below the threshold |
| PSHPRLQTHV [KIRREL2, Q6UWL6] | below the threshold |

target: T9, RADIL, Q96JH8; assay: holdup assay; set-up: key: below the threshold = too weak to quantify, mostly under pKd 3.1 to 4; settings: plain residues with an end cap or a label only (N-terminal biotin on a linker: ado-ado)

| Binder | pKd |
| --- | --- |
| DPAESMESLV [PTPRG, P23470] | 4.23 |
| PSHPRLQTHV [KIRREL2, Q6UWL6] | 3.73 |

target: T10, SIPA1L2, Q9P2F8; assay: holdup assay; set-up: key: below the threshold = too weak to quantify, mostly under pKd 3.1 to 4; settings: plain residues with an end cap or a label only (N-terminal biotin on a linker: ado-ado)

| Binder | pKd |
| --- | --- |
| DPAESMESLV [PTPRG, P23470] | below the threshold |
| PSHPRLQTHV [KIRREL2, Q6UWL6] | below the threshold |

target: T11, SNTG2, Q9NY99; assay: holdup assay; set-up: key: below the threshold = too weak to quantify, mostly under pKd 3.1 to 4; settings: plain residues with an end cap or a label only (N-terminal biotin on a linker: ado-ado)

| Binder | pKd |
| --- | --- |
| DPAESMESLV [PTPRG, P23470] | 4.24 |
| PSHPRLQTHV [KIRREL2, Q6UWL6] | below the threshold |

target: TJP1_2, Q07157; assay: holdup assay; set-up: key: below the threshold = too weak to quantify, mostly under pKd 3.1 to 4; settings: plain residues with an end cap or a label only (N-terminal biotin on a linker: ado-ado)
Sequence (Q07157 181-274): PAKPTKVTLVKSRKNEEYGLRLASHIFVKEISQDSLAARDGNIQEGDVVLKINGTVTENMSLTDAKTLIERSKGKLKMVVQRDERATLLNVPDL

| Binder | pKd |
| --- | --- |
| DPAESMESLV [PTPRG, P23470] | below the threshold |
| PSHPRLQTHV [KIRREL2, Q6UWL6] | below the threshold |

target: TJP2_1, Q9UDY2; assay: holdup assay; set-up: key: below the threshold = too weak to quantify, mostly under pKd 3.1 to 4; settings: plain residues with an end cap or a label only (N-terminal biotin on a linker: ado-ado)
Sequence (Q9UDY2 24-128): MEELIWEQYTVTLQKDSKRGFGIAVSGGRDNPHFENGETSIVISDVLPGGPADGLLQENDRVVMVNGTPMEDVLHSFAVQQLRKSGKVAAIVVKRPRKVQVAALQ

| Binder | pKd |
| --- | --- |
| DPAESMESLV [PTPRG, P23470] | below the threshold |
| PSHPRLQTHV [KIRREL2, Q6UWL6] | 4.58 |

target: T12, TJP3_3, O95049; assay: holdup assay; set-up: key: below the threshold = too weak to quantify, mostly under pKd 3.1 to 4; settings: plain residues with an end cap or a label only (N-terminal biotin on a linker: ado-ado)

| Binder | pKd |
| --- | --- |
| DPAESMESLV [PTPRG, P23470] | below the threshold |
| PSHPRLQTHV [KIRREL2, Q6UWL6] | below the threshold |
